Test results as given in article PMC2570500 (EMBO Reports, 2008).

Target: N-terminal domain of Saccharomyces cerevisiae Hsp82 (1–210) (Saccharomyces cerevisiae, UniProt P02829 1-210)
Experiment: NMR titration

Sequence of N-terminal domain of Saccharomyces cerevisiae Hsp82 (1–210) (P02829 1-210): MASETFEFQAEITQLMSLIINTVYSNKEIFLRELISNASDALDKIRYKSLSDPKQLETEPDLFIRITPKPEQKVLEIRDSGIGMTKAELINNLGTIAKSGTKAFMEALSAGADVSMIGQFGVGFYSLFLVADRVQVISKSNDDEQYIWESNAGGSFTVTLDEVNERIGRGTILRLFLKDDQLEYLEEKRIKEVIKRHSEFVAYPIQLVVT

Binder | Kd [µM] | binding result
CS domain of S. cerevisiae Sgt1 (176–290) (domain or fragment) ETAPQESPKFKIDWYQSSTSVTISLFTVNLPESKEQVNIYISPNDRRTLSISYQVPKSGSEFQYNAKLSHEVDPKAVSLKIFPKKLEITLSKIDSTQWKKLEEDILTESSRLSDE | 27 ± 3 | 
CS domain of Arabidopsis SGT1a (149–253), NMR sample (domain or fragment) TAKYRHEYYQKPEEVVVTVFAKGIPKQNVNIDFGEQILSVVIEVPGEDAYYLQPRLFGKIIPDKCKYEVLSTKIEICLAKADIITWASLEHGKGPAVLPKPNVSS |  | binds
